In experiment [1] the target is T1, cynomolgus monkey GPRC5D protein (cynomolgus monkey, UniProt Q9NZD1 1-343 (human entry)).
T1 construct: also called CynoGPRC5D; on HEK293T-CynoGPRC5D cells
T1 chain: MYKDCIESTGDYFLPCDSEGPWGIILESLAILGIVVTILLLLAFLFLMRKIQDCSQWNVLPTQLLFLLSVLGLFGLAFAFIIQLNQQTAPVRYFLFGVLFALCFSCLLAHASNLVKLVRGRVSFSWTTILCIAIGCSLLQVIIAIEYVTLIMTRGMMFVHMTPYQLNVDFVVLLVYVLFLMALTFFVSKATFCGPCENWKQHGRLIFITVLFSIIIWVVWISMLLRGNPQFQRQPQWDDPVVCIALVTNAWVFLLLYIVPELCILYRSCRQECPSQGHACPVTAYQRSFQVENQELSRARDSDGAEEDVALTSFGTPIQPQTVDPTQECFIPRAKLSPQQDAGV
The experiment is described as follows: flow cytometry, HEK293T-CynoGPRC5D cells (sheet: 293T-cynoGPRC5D), PE anti-human IgG Fc secondary, MFI. The protocol:
(§1) Whether the anti-GPRC5D chimeric antibodies in the present invention could bind to the human GPRC5D protein or cynomolgus monkey GPRC5D protein stably expressed on the cell surface was determined by cell binding experiments.
(§2) The HEK293T-HuGPRC5D cell line and HEK293T-CynoGPRC5D shown in Table 2 were subjected to enzymatic digestion to obtain single cell suspensions of the two types of cells. The single cell suspensions were centrifuged at room temperature at 400×g, and then the media were discarded. The resulting cell pellets were washed once with PBS and then resuspended in the serially diluted anti-GPRC5D chimeric antibodies shown in Table 5 and the control antibody GC5B596 (at an initial concentration of 133.3 nM, 4-fold gradient dilution, 8 concentrations in total), and the cells were incubated at 4° C. for 30 min. The cells were washed once with PBS, and then fluorescent secondary antibody R-PE-conjugated AffiniPure Goat Anti-Human IgG, Fcγ Fragment Specific (Jackson ImmunoResearch, Cat #109-116-098) diluted in a 1:200 ratio was added. The cells were incubated in the dark at 4° C. for 30 min. The cells were washed twice with PBS and then resuspended, and finally, two-channel fluorescence signals were detected using a BD Accuri C5 (BD Bioscience) flow cytometer.

The target of a further experiment is T2, human GPRC5D protein (human, UniProt Q9NZD1 1-345).
T2 construct: NCI-H929 cells express it endogenously in the functional assays; also called HuGPRC5D; huGPRC5D
T2 sequence (Q9NZD1 whole entry): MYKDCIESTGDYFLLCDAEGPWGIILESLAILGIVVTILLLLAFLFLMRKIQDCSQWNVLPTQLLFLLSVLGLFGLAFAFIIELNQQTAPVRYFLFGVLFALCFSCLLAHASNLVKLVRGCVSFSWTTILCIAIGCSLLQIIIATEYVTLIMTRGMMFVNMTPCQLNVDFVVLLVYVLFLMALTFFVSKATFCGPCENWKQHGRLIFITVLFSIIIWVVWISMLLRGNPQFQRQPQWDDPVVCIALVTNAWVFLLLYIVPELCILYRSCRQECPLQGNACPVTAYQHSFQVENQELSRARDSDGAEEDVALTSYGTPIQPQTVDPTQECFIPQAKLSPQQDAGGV
The experiment is described as follows: flow cytometry, HEK293T-HuGPRC5D cells (sheet: 293T-huGPRC5D), PE anti-human IgG Fc secondary, MFI. The protocol:
as §1, §2

Another experiment has as its target T3, Rhesus monkey MUC16-His (rhesus monkey).
T3 construct: The entry includes the C-terminal 6xHis tag; also called membrane-proximal end of the extracellular region of the rhesus monkey MUC16 protein
T3 chain: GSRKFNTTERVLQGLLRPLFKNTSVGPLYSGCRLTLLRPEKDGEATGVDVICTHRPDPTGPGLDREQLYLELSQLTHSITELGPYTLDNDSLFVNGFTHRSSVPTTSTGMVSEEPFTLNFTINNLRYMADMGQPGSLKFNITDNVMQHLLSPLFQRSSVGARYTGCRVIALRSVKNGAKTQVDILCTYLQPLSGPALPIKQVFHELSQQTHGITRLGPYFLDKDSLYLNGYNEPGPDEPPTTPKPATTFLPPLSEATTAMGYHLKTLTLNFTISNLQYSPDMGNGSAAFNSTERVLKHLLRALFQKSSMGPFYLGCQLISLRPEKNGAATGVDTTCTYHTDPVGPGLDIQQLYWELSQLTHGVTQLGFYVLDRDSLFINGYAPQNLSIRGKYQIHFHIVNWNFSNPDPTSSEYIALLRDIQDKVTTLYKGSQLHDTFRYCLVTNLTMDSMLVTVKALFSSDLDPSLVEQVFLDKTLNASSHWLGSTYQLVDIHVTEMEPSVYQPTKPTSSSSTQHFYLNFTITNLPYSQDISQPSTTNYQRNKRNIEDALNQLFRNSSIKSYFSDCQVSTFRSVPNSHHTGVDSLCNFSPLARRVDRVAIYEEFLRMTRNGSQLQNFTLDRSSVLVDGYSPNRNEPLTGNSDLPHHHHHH
The experiment is described as follows: BLI (ForteBio Octet RED96), antibody on AHC sensor, 50 nM antigen, 1:1 model. From the text:
(§3) The binding affinity of the anti-MUC-16 antibodies for the membrane-proximal end of the extracellular region of the human MUC16 protein (human MUC16-His, Table 26) and the membrane-proximal end of the extracellular region of the rhesus monkey MUC16 protein (rhesus monkey MUC16-His, Table 26) was detected by ForteBio Octet RED96, respectively. According to the manufacturer's instructions, an AHC sensor (ForteBio, Cat #18-5060) was placed in a running buffer (lx PBS, Hyclone, Cat #SH30256.01, containing 0.02% Tween 20, pH 7.0) and pre-equilibrated at room temperature for 10 min. In a 96-well plate, the kinetic assay was performed according to the following steps: a) equilibrating the baseline for 100 s with the running buffer; b) diluting the anti-MUC-16 antibodies with the running buffer to 5 μg/mL, immobilizing for 200 s, and stopping; c) equilibrating the baseline for 300 s with the running buffer; and d) diluting the human or rhesus monkey MUC16 protein with the running buffer to 50 nM, binding for 200 s, and dissociating for 600 s. The experimental data were fitted and calculated using a Fortebio Data Analysis software 1:1 binding model.

For a further experiment, the target named is T4, Human MUC16-His (human).
T4 construct: The entry includes the C-terminal 6xHis tag; also called membrane-proximal end of the extracellular region of the human MUC16 protein; Human MUC16 protein
T4 chain: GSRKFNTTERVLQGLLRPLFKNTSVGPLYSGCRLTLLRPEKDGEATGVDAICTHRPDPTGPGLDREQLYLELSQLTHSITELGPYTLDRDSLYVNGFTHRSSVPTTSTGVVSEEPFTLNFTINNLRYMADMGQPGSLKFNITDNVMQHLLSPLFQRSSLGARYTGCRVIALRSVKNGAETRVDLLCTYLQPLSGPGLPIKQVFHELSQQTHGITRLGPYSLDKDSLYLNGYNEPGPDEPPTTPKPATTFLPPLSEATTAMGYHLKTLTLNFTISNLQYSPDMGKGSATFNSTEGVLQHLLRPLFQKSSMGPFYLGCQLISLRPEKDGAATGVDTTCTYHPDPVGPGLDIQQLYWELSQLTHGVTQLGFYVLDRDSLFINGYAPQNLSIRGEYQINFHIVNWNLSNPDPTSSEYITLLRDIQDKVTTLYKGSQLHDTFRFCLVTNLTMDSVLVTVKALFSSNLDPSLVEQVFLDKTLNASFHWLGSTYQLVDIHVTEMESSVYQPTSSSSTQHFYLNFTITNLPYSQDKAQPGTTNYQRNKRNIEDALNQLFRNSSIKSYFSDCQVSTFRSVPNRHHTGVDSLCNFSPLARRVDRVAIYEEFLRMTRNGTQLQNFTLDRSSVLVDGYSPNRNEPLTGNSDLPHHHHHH
Described as above.
Description: as §3

The target in experiment [2] is T5, rhesus monkey MUC16 protein (ECT_TM RhMuc16) on 293T cells (rhesus monkey).
T5 chain: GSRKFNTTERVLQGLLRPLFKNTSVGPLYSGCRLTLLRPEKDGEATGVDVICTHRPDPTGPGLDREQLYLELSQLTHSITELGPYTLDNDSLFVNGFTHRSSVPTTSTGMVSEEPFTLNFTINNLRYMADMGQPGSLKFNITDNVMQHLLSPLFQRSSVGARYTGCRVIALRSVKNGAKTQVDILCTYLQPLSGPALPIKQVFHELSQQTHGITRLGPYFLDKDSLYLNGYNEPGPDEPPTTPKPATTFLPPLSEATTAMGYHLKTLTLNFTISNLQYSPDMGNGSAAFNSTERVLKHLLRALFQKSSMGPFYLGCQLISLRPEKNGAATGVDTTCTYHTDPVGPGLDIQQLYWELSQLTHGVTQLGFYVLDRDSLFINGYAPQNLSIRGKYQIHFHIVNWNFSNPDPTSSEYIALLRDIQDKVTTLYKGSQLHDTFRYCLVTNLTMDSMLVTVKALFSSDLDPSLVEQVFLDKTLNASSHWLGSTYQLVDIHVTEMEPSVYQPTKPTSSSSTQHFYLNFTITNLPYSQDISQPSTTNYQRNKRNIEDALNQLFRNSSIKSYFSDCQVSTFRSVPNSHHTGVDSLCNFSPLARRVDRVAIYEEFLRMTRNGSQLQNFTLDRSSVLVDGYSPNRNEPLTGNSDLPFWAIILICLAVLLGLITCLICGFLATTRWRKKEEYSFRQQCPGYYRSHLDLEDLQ
The experiment in a line: flow cytometry, 293T/rhesus MUC16 cells, PE anti-human IgG Fc secondary, MFI; EC50 table under the plot, unit from the axis Conc.(nM). Here is the method: (§4) The serially diluted anti-human MUC16 antibodies (at an initial concentration of 200 nM, 4-fold dilution, 8 points in total) obtained in the present application were added to the cells, and the cells were incubated at 4° C. for 30 min. The cells were washed twice with PBS, and then fluorescent secondary antibody R-PE-conjugated AffiniPure Goat Anti-Human IgG, Fcγ Fragment Specific (Jackson ImmunoResearch, Cat #109-116-098) was added. The cells were incubated at 4° C. for 30 min. The cells were washed twice with PBS and then resuspended, and finally, fluorescence signals were detected using a BD Accuri C5 (BD Bioscience) flow cytometer.

Experiment [3] addresses T6, human MUC16 protein (ECT_TM huMuc16) on 293T cells (human).
T6 chain: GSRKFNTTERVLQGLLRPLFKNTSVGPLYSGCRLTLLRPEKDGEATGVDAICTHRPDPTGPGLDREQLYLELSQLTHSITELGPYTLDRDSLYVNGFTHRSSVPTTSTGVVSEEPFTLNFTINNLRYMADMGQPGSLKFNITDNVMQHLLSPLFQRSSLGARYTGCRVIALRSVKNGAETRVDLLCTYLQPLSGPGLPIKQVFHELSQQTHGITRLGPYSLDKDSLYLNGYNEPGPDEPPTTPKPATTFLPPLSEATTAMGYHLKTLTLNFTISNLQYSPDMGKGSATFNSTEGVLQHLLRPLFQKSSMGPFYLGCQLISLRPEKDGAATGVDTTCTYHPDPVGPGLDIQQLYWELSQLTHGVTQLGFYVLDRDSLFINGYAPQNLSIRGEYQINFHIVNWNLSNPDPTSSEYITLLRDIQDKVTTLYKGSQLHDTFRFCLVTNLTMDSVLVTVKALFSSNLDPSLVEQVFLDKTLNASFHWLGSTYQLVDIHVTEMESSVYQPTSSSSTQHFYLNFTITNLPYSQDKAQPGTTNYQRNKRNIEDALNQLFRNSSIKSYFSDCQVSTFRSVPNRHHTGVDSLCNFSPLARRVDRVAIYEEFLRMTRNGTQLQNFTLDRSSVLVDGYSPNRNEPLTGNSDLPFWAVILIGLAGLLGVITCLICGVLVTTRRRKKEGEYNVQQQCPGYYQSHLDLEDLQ
The experiment in a line: flow cytometry, 293T/hMUC16 cells, PE anti-human IgG Fc secondary, MFI; EC50 table under the plot, unit from the axis Conc.(nM). The protocol: as §4

We go through four molecules from patent publication US20250092135A1 (NANJING LEADS BIOLABS, published 2025).

B1: chimeric antibody 39A9F1 (antibody, human IgG1, kappa, V domains shown)
VH: QVQLQQPGAELVKPGSSVKLSCKASGYTFTTYWMEWVKQRPGQGLEWIGEINPNNGRSNYNEKFQTKATLTVDKSSSTAYMQFSSLTSEDSAVYYCARERAGLTYWGQGTLVIVSA
VL: DVVMTQTPLSLPVSLGDQASISCRSSQSLVHSNGNTYLHWYLQKPGQSPKLLIYKVSNRFSGVPDRFGGSGSGTDFTLKISRVEAEDLGVYFCSQSTHFPYTFGGGTKLEIKR
notes: Murine variable regions on human IgG1 and kappa constant regions
In the case of B1, the “EC50 (read off the curve)” value in experiment [1] was approximately 4 nM; with human GPRC5D protein, approximately 3 nM.

B2: chimeric antibody 29H12C9 (antibody, human IgG1, kappa, V domains shown)
VH: QVQLQQPGAELVKPGASVKLSCKASGYTFTTHYMYWVKQRPGQGLEWIGGINPSNGATNFNEKFKTKATLTVDKSSSTAYMQLSSLTSEDSAVYYCTRVGGLSYTMDYWGQGTSVTVSS
VL: DIVMSQSPSSLAVSVGEKVSMSCKSSQSLLYSSNQKNYLAWYQQKPGQSPKLLIYWASTRESGVPDRFTGSGYGTDFTLTISSMKAEDLAVYYCQQYYSYPRTFGGGTKLDIKR
notes: also called murine chimeric antibody 29H12C9; murine control antibody (29H12C9)
Turning to B2, the half-maximal effective concentration (EC50 (read off the curve)) (in experiment [1]; with human GPRC5D protein) was approximately 3 nM throughout.

B3: murine anti-MUC16 antibody 776.1 (antibody, human IgG1, kappa, L234A L235A, V domains shown)
VH: EVQLQQSGPELVKPGASVKISCKASGYTFTDYNIHWVKQSHGKILEWIGYIYPYNGVSDYNQNFKSKATLIVDNSSNTAYMELRSLTSEDSAVYYCARWDFGSGYYFDYWGQGTTLTVSS
VL: QIVLSQSPAILFASPGETVTMTCRASSSVIYMCWNQQKPGSSPKPWIYGTSTLASGVPTRFSGSGSGTSYSLTISRVEAEDAATYYCQQWSSNPFTFGSGTKLEIKR
notes: Murine variable regions on human IgG1 (L234A, L235A, D265A, P329A) and kappa constant regions
B3: the Kd with Rhesus monkey MUC16-His was determined as 1.82 nM; with Human MUC16-His, 0.359 nM. The values for the koff with Rhesus monkey MUC16-His and with Human MUC16-His were 0.00156 s⁻¹ and 0.000168 s⁻¹, respectively. Further, the kon with Rhesus monkey MUC16-His turned out to be 856000 M⁻¹ s⁻¹; with Human MUC16-His, 468000 M⁻¹ s⁻¹. The figures for the EC50 in experiment [2] and in experiment [3] were 4.87 nM and 2.58 nM, respectively.

B4: chimeric antibody 4B9E9 (antibody, human IgG1, kappa, V domains shown)
VH: DVQLVESGGGLVQPRGSRKLSCAASGFTFSSFGMHWVRQAPEKGLEWVAYISSDSNTIYYADTVQGRFTISRDNPKNTLFLQMTRLRSEDTAMYYCARNPWYFDVWGAGTTVTVSS
VL: DVLMTQTPLSLPVSLGDQVSISCRSSQSIVHSNGNTYLEWFLQKPGQSPKLLIYKVSNRFSGVPDRFSGSGSGTDFTLKISRVEAEDLGIYYCFQGSHIPPTFGGGTKLEIKR
notes: as for B1
Turning to B4, in experiment [1], the binding result is “binds”. For the same molecule, the “EC50 (read off the curve)” value with human GPRC5D protein was approximately 3 nM.
